Residue numbers refer to the chain shown, from its start. Names may count otherwise.
B1: C5A (XPA23) (antibody, V domains shown)
VH: EVQLLESGGGLVQPGGSLRLSCAASGFTFSKYFMFWVRQAPGKGLEWVSVISPSGGMTRYADSVKGRFTISRDNSKNTLYLQMNSLRAEDTAVYYCARVGYGGNSDYWGQGTLVTVSS
VL: DIQMTQSPSSVSASVGDRLTIICRASQDINRWLAWYQQTPGNAPKLLIHSATSLQSGVPSRFSGSGSGTDFTLTINSLQPEDFATYYCQQADSFPLTFGGGTKVEIK
B2: C5A (XPA23) light chain variable region S93T (antibody, V domains shown)
VH: B1 VH
VL: B1 VL with S93T
B3: C5A (XPA23) light chain variable region L96T (antibody, V domains shown)
VH: B1 VH
VL: B1 VL with L96T
B4: C5A (XPA23) light chain variable region F94I (antibody, V domains shown)
VH: B1 VH
VL: B1 VL with F94I
B5: C5A (XPA23) light chain variable region F94P (antibody, V domains shown)
VH: B1 VH
VL: B1 VL with F94P
B6: C5A (XPA23) light chain variable region S93V (antibody, V domains shown)
VH: B1 VH
VL: B1 VL with S93V
B7: C5A (XPA23) light chain variable region F94L (antibody, V domains shown)
VH: B1 VH
VL: B1 VL with F94L
B8: C5A (XPA23) light chain variable region A91T (antibody, V domains shown)
VH: B1 VH
VL: B1 VL with A91T
B9: C5A (XPA23) light chain variable region S93L (antibody, V domains shown)
VH: B1 VH
VL: B1 VL with S93L
B10: C5A (XPA23) light chain variable region D92A (antibody, V domains shown)
VH: B1 VH
VL: B1 VL with D92A
B11: C5A (XPA23) light chain variable region S93A (antibody, V domains shown)
VH: B1 VH
VL: B1 VL with S93A
B12: C5A (XPA23) light chain variable region P95A (antibody, V domains shown)
VH: B1 VH
VL: B1 VL with P95A
B13: C5A (XPA23) light chain variable region D92G (antibody, V domains shown)
VH: B1 VH
VL: B1 VL with D92G
B14: C5A (XPA23) light chain variable region D92T (antibody, V domains shown)
VH: B1 VH
VL: B1 VL with D92T
B15: C5A (XPA23) light chain variable region L96A (antibody, V domains shown)
VH: B1 VH
VL: B1 VL with L96A
B16: C5A (XPA23) light chain variable region A91V (antibody, V domains shown)
VH: B1 VH
VL: B1 VL with A91V
B17: C5A (XPA23) light chain variable region D92L (antibody, V domains shown)
VH: B1 VH
VL: B1 VL with D92L
B18: C5A (XPA23) light chain variable region S93G (antibody, V domains shown)
VH: B1 VH
VL: B1 VL with S93G
B19: C5A (XPA23) light chain variable region S93I (antibody, V domains shown)
VH: B1 VH
VL: B1 VL with S93I
B20: C5A (XPA23) light chain variable region L96I (antibody, V domains shown)
VH: B1 VH
VL: B1 VL with L96I
B21: C5A (XPA23) light chain variable region F94V (antibody, V domains shown)
VH: B1 VH
VL: B1 VL with F94V
B22: C5A (XPA23) light chain variable region S53P (antibody, V domains shown)
VH: B1 VH
VL: B1 VL with S53P
B23: C5A (XPA23) light chain variable region A91L (antibody, V domains shown)
VH: B1 VH
VL: B1 VL with A91L
B24: C5A (XPA23) light chain variable region D92I (antibody, V domains shown)
VH: B1 VH
VL: B1 VL with D92I

Experiments:
[1] = molecular target: binding partner (antigen) of ING-1; assay: Biacore, internal control
[2] = molecular target: binding partner (antigen) of ING-1, not given; assay: Biacore; internal control identical to original
[3] = molecular target: binding partner of C5A (XPA23); assay: Biacore (K-off), clones identical to parent C5A (XPA23)
[4] = molecular target: binding partner of C5A (XPA23); assay: Biacore; internal control, L96 L is identical to the original C5A (XPA23)
[5] = molecular target: binding partner of C5A (XPA23); assay: Biacore, mutant vs original C5A (XPA23)

Molecule	fold difference in affinity in comparison to original [5] [fold]	further results
ING-1 (original, unmodified variable domain) (antibody)	–	fold difference in affinity vs original [1]: 1.38 fold
ING-1 antibody variable domain (original, unmodified)	–	fold difference in affinity vs original [2]: 1.38 fold
B1	–	mean fold affinity of internal controls vs original [3]: 1.03 fold; fold difference in affinity in comparison to original [4]: 1.16 fold
B2	1.47	–
B3	0.06	–
B4	0.88	–
B5	0.17	–
B6	3.81	–
B7	0.55	–
B8	0.67	–
B9	1.08	–
B10	0.4	–
B11	1.16	–
B12	3.83	–
B13	0.26	–
B14	0.34	–
B15	0.26	–
B16	0.51	–
B17	0.14	–
B18	0.75	–
B19	1.35	–
B20	0.67	–
B21	0.2	–
B22	4.92	–
B23	0.39	–
B24	0.33	–
